Publication PMC5358978, “Nuclear export receptor CRM1 recognizes diverse conformations in nuclear export signals” (eLife, 2017)

Target: human CRM1 (HsCRM1), wild type (human) (UniProt O14980)
Test: differential bleaching; competition titration of MBP-NES to FITC-PKI NES and CRM1 with excess RanGTP; triplicate; fitted with a set of direct titrations

human CRM1 (HsCRM1), wild type (human), sequence (O14980 whole entry): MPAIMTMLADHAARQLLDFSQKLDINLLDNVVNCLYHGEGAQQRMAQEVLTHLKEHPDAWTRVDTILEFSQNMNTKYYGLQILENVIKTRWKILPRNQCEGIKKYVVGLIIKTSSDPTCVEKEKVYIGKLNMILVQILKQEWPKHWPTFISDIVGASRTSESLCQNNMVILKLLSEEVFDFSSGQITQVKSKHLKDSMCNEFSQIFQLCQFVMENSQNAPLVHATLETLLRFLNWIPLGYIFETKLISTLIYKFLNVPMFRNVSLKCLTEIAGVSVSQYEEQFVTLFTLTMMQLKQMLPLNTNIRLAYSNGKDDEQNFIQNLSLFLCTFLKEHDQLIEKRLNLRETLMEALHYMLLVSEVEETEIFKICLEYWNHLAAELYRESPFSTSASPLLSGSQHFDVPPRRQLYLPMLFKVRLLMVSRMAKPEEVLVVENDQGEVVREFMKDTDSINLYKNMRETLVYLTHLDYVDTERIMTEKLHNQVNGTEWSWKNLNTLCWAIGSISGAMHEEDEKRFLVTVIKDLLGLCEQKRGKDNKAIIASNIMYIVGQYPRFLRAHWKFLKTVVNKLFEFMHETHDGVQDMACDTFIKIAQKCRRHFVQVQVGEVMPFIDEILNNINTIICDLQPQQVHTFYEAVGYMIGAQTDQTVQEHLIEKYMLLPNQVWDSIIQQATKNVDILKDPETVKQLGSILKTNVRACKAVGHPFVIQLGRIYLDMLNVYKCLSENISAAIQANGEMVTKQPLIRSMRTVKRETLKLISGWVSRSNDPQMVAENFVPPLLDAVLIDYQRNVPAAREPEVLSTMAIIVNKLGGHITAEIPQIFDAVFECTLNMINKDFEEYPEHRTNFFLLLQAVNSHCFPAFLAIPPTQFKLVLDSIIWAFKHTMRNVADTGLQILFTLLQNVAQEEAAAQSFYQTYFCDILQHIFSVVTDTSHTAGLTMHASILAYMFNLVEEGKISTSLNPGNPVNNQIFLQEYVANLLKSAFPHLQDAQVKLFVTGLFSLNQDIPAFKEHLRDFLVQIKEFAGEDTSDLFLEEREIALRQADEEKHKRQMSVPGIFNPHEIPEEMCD

Kd: 9.1 µM
Substance: MBP-mDia2 NES(Φ0A) mutant (peptide)
